Reference: the DeepSol protein solubility set

Assay: soluble on expression in E. coli; label from the status in PepcDB or PDB records

Row | Sequence | soluble on expression in E. coli
1 | SNAMAHEAQKAIARNSLLIRSLPEQHVDALLSQAVWRSYDRGETLFLQEEKAQAIHVVIDGWVKLFRMTPTGSEAVVSVFTRGESFGEAVALRNTPYPVSAEAVTPCEVMHIPSPVFVSLMRRDPEICISILATTFGHLHSLVAQLEQLKAQTGAQRVAEFLLELCDCDTGACEVTLPYDKMLIAGRLGMKPESLSRAFSRLKAAGVTVKRNHAEIEDIALLRDYAESDPADSWSES | soluble
2 | MSSSDTFEKLYIEQHDAPSEEQVEEWLATGEVLKLEQIVLDGRGHMLREKKTVNASSNEFLSGLTQYLTKIDAIHKAVEEGDVRRVKSLIDRPLLSTARDNYGMTPIHKALLHGQTNTVRFLLGRFPSCVNATDHRIFGILVDSVSNGVFNKSPLKKNAGRTPLHYAAADPNGEHMIKVLQKSGGDAFIEDKHGHTPFYYRTHGQRLNVRSMKDNAVMNQLISGQLSRPLLQDLEEDIYDWIHTGNIGKLEELVLTGYADLLLGRNHEVDDADSIGFLEVLPQYQAKIQSIHKAVETGNLRAVKLLTDRKKLSLCRDTRGLSPLHKAIVFERTDIAKYLIRNYPQSVNAMDQKKRTPLHYAAALKDGGYLYKVMRKSGADPNIYDCNGRPAKYYLKHTGEIDLSAMRLDTRAALKQVLHNRVAPSYLESSIQQWLRDGQLAKLEQLVLSGCGDLLQSRTSTHTETQAFLDRLPDYMDKIDGIHKSIKEGNLDKVKELMKTKKLAIARDRFGCTPLHSAVVHEHTEIVRYIAGHYNSVLNAPDYNKRTAMHYAAAARDGGHYLKILGKAGADPMAVDNEGRTPDYYRRNAVIDLKLIKDRDEDFETINEEYLEDGPLIDSPATPDSGSEGSFIDSARMLDDEDESIERHRFEKAFRGKIDLPTSENGVYLARTVAPVLTKALAEVLLRRPADPIGFIAEWLSKYVVEIPRHNGSH | not soluble
3 | VKNKKFTIIGGDLRSVKLAELIVAEGNKVNIYGFKNANFEIGIEESEDLDHAIGEADVIVGPTPCSTDNETINTPFHSQKIFIKDIFKKMNKSQLFIAGRITDKIAQLADVYNVYSVDLLEREEMAVLNAIPTAEGAIQIAMEEMPITLHGSNALILGFGRIGKILAKMLHGIGSNVYVEARKYSDLAWIESYGYKPVFITELESYIDRANVIFNTIPSIVLDENLLRKVNKDCLLIDLASKPGGIDFEKAKEMGLKTIWALSLPGKVAPVTAAKFIKDTISNIIDELGV | not soluble
4 | GSHMSSLEKRLGKNEYFIITKSSPVRAILNDFAANYSIPVFISSSVNDDFSGEIKNEKPVKVLEKLSKLYHLTWYYDENILYIYKTNEISRSIITPTYLDIDSLLKYLSDTISVNKNSCNVRKITTFNSIEVRGVPECIKYITSLSESLDKEAQSK | soluble
5 | MASGIRCFRLLHPAFRSYHAALTRPVSEVSMKTVSGRQHGHRQYSAYPAVPVRHFATKKAKAKGKGQPQARVTVNRALVEDIISLEEVDEDMKSVVEALKDNFNKTLNIRTAPGSLDHITVVTADGKVALNQIGQISMKSPQVILVNMASFPECTAAAIKAIRESGMNLNPEVEGTLIRVPIPKVTREHREMLVKLAKQNTNKAKENLRKVRTNAMNKLKKSKDKTSEDTIRLIEKQISQMADDTVAELDQHLAAKTKELLG | soluble
6 | MSAYKTVVVGTDGSDSSMRAVDRAAQIAGADAKLIIASAYLPQHEDARAADILKDESYKVTGTAPIYEILHDAKERAHNAGAKNVEERPIVGAPVDALVNLADEEKADLLVVGNVGLSTIAGRLLGSVPANVSRRAKVDVLIVHTT | not soluble
7 | MPMYKLTPTFPPNFEVHPKIACYPVGSYHNPSFGGVGPSDAVQVESDPRKALEHKQLSLIEQLKAQTEELKKLLVSLGEAGKAERSAQKPAEKAPKEPEKSAGAASSAPGVPGAPAKLDKDAKKEARKAAKAEAVKKLASGEAPPQKSAKKTVNSTPWTVQDDRKTWETNLTLTVNLPTSLVAYEPQEQLKNATLTVRDVDLPWARALAKVGASRGVSFEGEVKNQTKEKKSSLKVVKGPAPSLQLEKTTVKSLQTIWKLLGSSLGLFSRRPQQVLSASHQAIWLGKAEQILAGSCDQSFVTREASQFLARFDSLSSQWEVCVADIVFRSLLNLGEHLPNNVELWAKKIDALIV | soluble
8 | GSPGIHMLGGSSDAGLATAAARGQVETVRQLLEAGADPNALNRFGRRPIQVMMMGSAQVAELLLLHGAEPNCADPATLTRPVHDAAREGFLDTLVVLHRAGARLDVCDAWGRLPVDLAEEQGHRDIARYLHAATGD | soluble
9 | MAHHHHHHMGANGSKTASSSSAVPAATTTTGDNKGTVNRWYGAVSDASDADLGLAPDVSLSSDISTPEENAAKRKAYAHLQSPYARHQLAASMKGRGSSGNNGAEASATAHVNLIEQIYNEDFETIDHIQALRLPPMVSQQLKNTVRSEAERRCAEVEKTMARCLQDKMWTSWKCQKERDTYYHCVEEIEQRNLRPDPTNPHWVDMLTSFRWKYNLGVFHGEIIGRNNIMKQIWREHYPDRELPHPWVKDA | not soluble
10 | MGSDKIHHHHHHVLVVVPEILDPKVDLVFKKVFGSQENKSILLSFLNAVLNWTGEQKIVDVKILNPYLEPESIDDSVGILDIKLQLENDDLVDVEMQIGNLGNMERRSTYYTCRMFGDQNISGGRYQDLNRVIAINVLDFTRIKNIERYHTKFRLRETQENIDLTDAIEIHFIELPKLRQEMASYTDPLDRWVVFLKGGWNMELLDRLAKEDPAIGQAKQVLEQMASNPRERELYELRRKAILDRNSALYEAKMEGKAEGKAEGQAIILLRLLKKKFGFMPVEMENRVMSMSAEKLQELAEAIFDLGTIDELNNFISR | not soluble
11 | QDKPVFVYRLIARGTVEEKIQHLQQEKAALADGLFSEGNGDGWKLDEADIDAL | soluble
12 | MDRRFPPFSPFFNHGRRFFDDVDFDRHMIRPYWADQTMLTGHRVGDAIDVVNNDQEYNVSVDVSQFEPEELKVNIVDNQLIIEGKHNEKTDKYGQVERHFVRKYNLPTGVRPEQIKSELSNNGVLTVKYEKNQEQQPKSIPITIVPKRN | not soluble
13 | MDFEKIRKWLEITNEYKQSDFWTNVLKYKAPEHFFDSEASTFVYDFYQDEEYNFIIVEMPGVYEEELTIRLLSKTQLLIKGTITPVFPAEMEVLRERYYGEIERIIQLPEAAETHLLQIQLLNGLLHISYPRQVETVAFNKGLLEHHHHHH | not soluble
14 | MIIATAGHVDHGKTTLLQAITGVNADRLPEEKKRGMTIDLGYAYWPQPDGRVPGFIDVPGHEKFLSNMLAGVGGIDHALLVVACDDGVMAQTREHLAILQLTGNPMLTVALTKADRVDEARVDEVERQVKEVLREYGFAEAKLFITAATEGRGMDALREHLLQLPEREHASQHSFRLAIDRAFTVKGAGLVVTGTALSGEVKVGDSLWLTGVNKPMRVRALHAQNQPTETANAGQRIALNIAGDAEKEQINRGDWLLADVPPEPFTRVIVELQTHTPLTQWQPLHIHHAASHVTGRVSLLEDNLAELVFDTPLWLADNDRLVLRDISARNTLAGARVVMLNPPRRGKRKPEYLQWLASLARAQSDADALSVHLERGAVNLADFAWARQLNGEGMRELLQQPGYIQAGYSLLNAPVAARWQRKILDTLATYHEQHRDEPGPGRERLRRMALPMEDEALVLLLIEKMRESGDIHSHHGWLHLPDHKAGFSEEQQAIWQKAEPLFGDEPWWVRDLAKETGTDEQAMRLTLRQAAQQGIITAIVKDRYYRNDRIVEFANMIRDLDQECGSTCAADFRDRLGVGRKLAIQILEYFDRIGFTRRRGNDHLLRDALLFPEK | soluble
15 | MTNFQRARSEEQRAVRRQAILDTTAAMLEEMPVGEVSLNELSRRVGLAKSNVLRYFESREAILLELLDRAWQQWVADLPALVHAGVDQGAPVSRRAEQFAAVIAASLAGRQVLCDLLSAQAGVLEHNVSPQVAARYKRAAVANVADIAALAHQHLPELGASAPQLTAVMIMAVGAVWTHARPSPAMLSAYEADPSLTAFKLDFVTTLQEMLATLTAGTIARESA | not soluble
16 | MGHHHHHHSHMKNSSSVSNTLTNGCVINGHLDFPSTTPLSGMESRNGQCLTGTNGISSGLAPGQPFPSSQGSLCISGTEEPEKTLRANPELCGSLHLNGSPSSCIASRPSWVEDIGDNLYYGHYHGFGDTAESIPELNSVVEHSKSVKVQERYDSAVLGTMHLHHGS | soluble
17 | MSLKTSRLPIAIQQAVMRRLREKLAQANLKLGRNYPEPKLSYTQRGTSAGTAWLESYEIRLNPVLLLENSEAFIEEVVPHELAHLLVWKHFGRVAPHGKEWKWMMESVLGVPARRTHQFELQSVRRNTFPYRCKCQEHQLTVRRHNRVVRGEAVYRCVHCGEQLVAKEGHHHHHH | not soluble
18 | MGSDKIHHHHHHASEPVSVASTPETDEIDQLFDDMQLDGIVSYTAFRQAVTGYQKIEQKSKSIMTLIDFSKPSTEKRLYVLDMKNKKLLYTSVVSHGKNSGGNYATSFSNKNGSYKSSLGFYLTENTYQGRNGYSLVLNGLEKGINDQAKQRAIVMHGAAYANPNITASAGRLGRSLGCPALPQALAKPIIDTIKKGSVLFIYANNKDYLANSTFLSPRQTEYLSWAQPAN | not soluble
19 | MKTAIVTDSASYLSAADVEKYHIHVVPITVIFGHQTYLENVEITSKEFYERMRTAPELPTTTQITLGQMQTTYDQLAKAGYDAVISIHLSSGITSFITNLESYLPNVTNIKVYPFDSLITAGGEAYMVLLAAKLVTEGYSPEQVIAQLKKIRETTGVYFVVDNLSHLVRTGRLSNASGLVGNLLRIKPVLTFQDGKIVAIQKERTMRRAYAAIKAKLAAEIAAVDYPLRVTIENGNNPKLQAEWTADLKASFPDLTIDEGEIGPVVGVHVGEGVMGLIWARDWEKWTI | not soluble
20 | NSDSECPLSHDGYCLHDGVCMYIEALDKYACNCVVGYIGERCQYRDLKWWELR | soluble
21 | MSLNEPLAERIRPKTLEDYVSQQHLVGENGILTKLIKQGIIPSLILWGPPGIGKTTLANIIATTSNRPFYTLSAISSGVKDVRDVIEKAKKSGGLFTAKNPILFIDEIHRFSKSQQDSLLGAVEKGWVTLIGATTENPSFEVIPALLSRCQIYILNSFDKEELIALLHRAMEKDAFLSSKKIILKETEALLQVSGGDARKLLNIFELLVSVDDEVVITNELVLSKIQKNTARYDKSGPQHYDIVSAFIKSIRGSDPNAAVYWLARMIEGGEDVKFIARRMLILASEDIGNANPTALIMANNTFQAVAIVGNPESRIILSQCAIYLSNSAKSNASYLAIGAAQKLVQETGDLSVPLNLRNAPTKLMKDLDYGADYKYSHDYPNSFVAQEFLPKTLSGNKIYTPGKNPREQQFKEVLKNRWKNKYEGHHHHHH | not soluble
22 | MYTIQANPSGTRSIEVSSENLKTIEKYALFRHLIDSTGIVDEPVLDKLKLNIRSLIASQEEDSKELLDLCIDVIYHNNMKAFGLQQLIKLYLTWLSTQDAEEEEE | soluble
23 | MAHHHHHHMTDVDQWKCASFKQEEDHSEATDALLERINATAIPVLLRSTNSSLDDLVNELLALEKMARLGGDALSAKRLVVEILRIYRVHGDHEKMLDTLETLMRKRGQTKQSQGAMIAECGVLLTEGNLSREQRRIVLERVVHLTDSRIHVELEHVRFAIDLAKLMEDDGEKRAACDLLSGLHVETVTNMPRVEKLDALNRLIRLCLELEDYELARLVSRRINHRALSRPGALQAKLKYFELMREYFAQRRSYFHVARCWYETFLSETDETACVSALSSMAVHYLIAEHSSPKELEDHAECAAFSPATKFADRTAAIQGITTTLRKRLEENPQLQYLLEKFTSIELIRERVADDVEALCINHPQLAGFPERQALLRSRCSEHDLLVISRFYRRLRLVRLAELVGLTPQHTEEFLMMMVASRTLYAKIDRVDGLVVFEANKNANDVVTAWDEAVGRSVALLDKVSHLIVKERMLHNITLAQLQQSGATAS | not soluble
24 | MGHHHHHHSHMADVEDGEETCALASHSGSSGSKSGGDKMFSLKKWNAVAMWSWDVECDTCAICRVQVMDACLRCQAENKQEDCVVVWGECNHSFHNCCMSLWVKQNNRCPLCQQDWVVQRIGK | not soluble
